Laboratory results reported in patent US20020137087, “2'-fluoropyrimidine anti-calf intestinal phosphatase nucleic acid ligands” (published 2002).
Changes are numbered by the printed parent chain.

B1: DD-172-2-4 (group B) (ssRNA)
RNA: GGGAGACAAGAAUAAACGCUCAACGCCAGGCCCUUAUCAAGCGCGGAACGCACGACCCGUCUUUCGACAGGAGGCUCACAACAGGC
modifications: all pyrimidines 2'-F
B2: DD-172-2-20 (group B) (ssRNA)
RNA: B1 RNA with C53U
modifications: all pyrimidines 2'-F
B3: DD-172-2-17 (group A) (ssRNA)
RNA: GGGAGACAAGAAUAACGCUCAAACACAAAACAAAAUAACUUGGCCUCGGUGCUCUACGCAAUUCGACAGGAGGCUCACAACAGGC
modifications: all pyrimidines 2'-F
B4: DD-172-2-9 (group A) (ssRNA)
RNA: GGGAGACAAGAAUAAACGCUCAACACAAAACAAAAUAACCUUAGCCUCGGUGCUCUACGCAAUUCGACAGGAGGCUCACAACAGGC
modifications: all pyrimidines 2'-F

What was measured:
[1] = biological target: T1, Calf intestinal alkaline phosphatase (CIP) (UniProt P19111 P19111:20-506); experiment: streptavidin plate chemiluminescence assay, SHMCK+ buffer pH 7.35, 1 mM CaCl2, 1 mM MgCl2, 37 C; details: tags: Boehringer Mannheim (Indianapolis, Ind.), 10 mg/ml; chain copies: 2
Description: The affinity of the initial random library and round 8 affinity enriched pool of Example 1 was performed by a plate-based assay using RNA-transcripts biotinylated on the 5′-terminus. Briefly, opaque white 96-well Lumino plates were coated with streptavidin (10 to 20 μg/well). Biotinylated RNA obtained either from the round 8 pool or the random library were added separately to individual wells of a 96-well microtiter plate (approximately 30 fMols RNA per well). After incubating for 1 hour at room temperature, wells were washed three times with […] of SHMCK+buffer. Varying concentrations of CIP, in SHMCK+buffer, were added to the wells and allowed to incubate for 1 hour at 37° C. Wells were washed four times with 200 μl SHMCK+buffer followed by the addition of a 100 μl solution consisting of 0.1 M diethanolamine pH 10, 10% volume/volume Sapphire enhancer solution (Tropix Inc., Bedford, Mass.), […] CSPD (Tropix, Inc.), 1 mM MgCl₂, and 0.02% sodium azide. After a 30 minute incubation, chemiluminescence was measured using a Berthold (Nashua, N.H.) LB 96P luminometer. Luminescence levels were integrated over one second and data were fit to a sigmoidal dose-response curve (variable slope), Y=Bottom+[(Top−Bottom)/1+10^{(Log EC50-X)(Hillslope)}] using GraphPad Prism version 2.01 (GraphPad Software; San Diego, Calif.). […]

[2] = biological target: T1, Calf intestinal alkaline phosphatase …; experiment: streptavidin plate chemiluminescence assay, SHMCK+ buffer, 37 C; details: tags: Boehringer Mannheim (Indianapolis, Ind.), 10 mg/ml; chain copies: 2
Description: The affinity of the initial random library and round 8 affinity enriched pool of Example 1 was performed by a plate-based assay using RNA-transcripts biotinylated on the 5′-terminus. Briefly, opaque white 96-well Lumino plates were coated with streptavidin (10 to 20 μg/well). Biotinylated RNA obtained either from the round 8 pool or the random library were added separately to individual wells of a 96-well microtiter plate (approximately 30 fMols RNA per well). After incubating for 1 hour at room temperature, wells were washed three times with […] of SHMCK+buffer. Varying concentrations of CIP, in SHMCK+buffer, were added to the wells and allowed to incubate for 1 hour at 37° C. Wells were washed four times with 200 μl SHMCK+buffer followed by the addition of a 100 μl solution consisting of 0.1 M diethanolamine pH 10, 10% volume/volume Sapphire enhancer solution (Tropix Inc., Bedford, Mass.), […] CSPD (Tropix, Inc.), 1 mM MgCl₂, and 0.02% sodium azide. After a 30 minute incubation, chemiluminescence was measured using a Berthold (Nashua, N.H.) LB 96P luminometer. Luminescence levels were integrated over one second and data were fit to a sigmoidal dose-response curve (variable slope), Y=Bottom+[(Top−Bottom)/1+10^{(Log EC50-X)(Hillslope)}] using GraphPad Prism version 2.01 (GraphPad Software; San Diego, Calif.). Each replicate was considered individually and convergence was obtained when two consecutive iterations varied the sum of squares (relative distance of the points from the curve, 1/Y²) by less than 0.01%.

T1 sequence (P19111 20-506, one chain of several): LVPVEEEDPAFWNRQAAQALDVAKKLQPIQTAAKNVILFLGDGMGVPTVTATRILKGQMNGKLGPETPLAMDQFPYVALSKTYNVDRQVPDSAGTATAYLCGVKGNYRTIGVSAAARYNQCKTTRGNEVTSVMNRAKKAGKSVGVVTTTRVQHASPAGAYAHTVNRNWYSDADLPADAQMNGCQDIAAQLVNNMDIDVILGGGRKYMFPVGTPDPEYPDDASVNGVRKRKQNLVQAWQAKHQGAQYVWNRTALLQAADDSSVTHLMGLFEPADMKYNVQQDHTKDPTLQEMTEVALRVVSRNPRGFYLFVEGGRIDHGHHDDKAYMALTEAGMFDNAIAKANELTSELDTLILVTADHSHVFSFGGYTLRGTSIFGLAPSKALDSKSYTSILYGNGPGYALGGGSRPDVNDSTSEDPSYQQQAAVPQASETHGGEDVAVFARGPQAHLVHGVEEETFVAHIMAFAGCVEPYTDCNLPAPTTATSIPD

Row | Binder | Kd [1] [nM] | Kd [2] [nM]
1 | B1 | 0.13 | 
2 | B2 |  | 0.26
3 | B3 |  | 7.2
4 | B4 |  | 7.8
